Here are results for 7 molecules from patent publication US20250270314A1 (TAVOTEK BIOTECH SUZHOU, published 2025).

Assay [1] addresses T1, recombinant human CDH17 (R&D systems) (human, UniProt Q12864 23-787).
T1 construct: Bought recombinant protein coated on the ELISA plate; also called human Cadherin-17
T1 sequence: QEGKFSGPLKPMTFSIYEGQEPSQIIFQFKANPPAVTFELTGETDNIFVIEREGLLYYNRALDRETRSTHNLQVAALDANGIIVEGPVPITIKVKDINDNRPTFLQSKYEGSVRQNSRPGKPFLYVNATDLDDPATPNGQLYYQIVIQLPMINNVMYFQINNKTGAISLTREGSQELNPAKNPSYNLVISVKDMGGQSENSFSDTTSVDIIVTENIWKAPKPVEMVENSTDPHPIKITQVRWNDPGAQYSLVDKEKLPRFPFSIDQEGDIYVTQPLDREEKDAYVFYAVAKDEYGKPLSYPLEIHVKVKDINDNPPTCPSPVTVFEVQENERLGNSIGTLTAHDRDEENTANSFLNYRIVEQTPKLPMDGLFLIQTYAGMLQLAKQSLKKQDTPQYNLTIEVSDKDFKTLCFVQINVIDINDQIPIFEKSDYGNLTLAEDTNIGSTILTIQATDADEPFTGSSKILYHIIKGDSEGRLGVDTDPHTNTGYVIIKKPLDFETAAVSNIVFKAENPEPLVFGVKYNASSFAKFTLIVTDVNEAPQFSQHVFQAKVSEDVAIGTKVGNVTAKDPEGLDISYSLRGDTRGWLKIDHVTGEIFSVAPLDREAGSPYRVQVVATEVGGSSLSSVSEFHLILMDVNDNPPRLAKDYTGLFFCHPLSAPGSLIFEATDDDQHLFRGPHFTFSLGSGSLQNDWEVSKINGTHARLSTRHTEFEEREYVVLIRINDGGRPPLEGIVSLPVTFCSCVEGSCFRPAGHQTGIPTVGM
Put plainly: ELISA, recombinant human CDH17. Here is the method: (§1) ELISA-based binding assay was employed to evaluate the binding to CDH17 by anti-CDH17 antibodies. In this assay, 100 μL of […] recombinant human CDH17 (R&D systems) was coated on an ELISA plate. Increasing concentrations of masked and reference mAbs were applied on the plate and their binding to the recombinant human proteins were detected by HRP-conjugated anti-human secondary antibody. […] The expressed anti-CDH17 mAbs had potent binding to CDH17. The anti-CDH17 were tested for binding to AGS gastric cancer cells and AsPC-1 pancreatic cancer cells.
(In general: An ELISA detects its analyte on a solid surface through an enzyme-linked reagent.)

Assay [2] deals with T2, human CDH17 on AGS gastric cancer cells and AsPC-1 pancreatic cancer cells (human, UniProt Q12864 23-832).
T2 construct: Native CDH17 on the surface of cancer cell lines; also called CDH17 expressing AGS cells; CDH17 expressing AsPC-1 pancreatic cancer cells
T2 sequence: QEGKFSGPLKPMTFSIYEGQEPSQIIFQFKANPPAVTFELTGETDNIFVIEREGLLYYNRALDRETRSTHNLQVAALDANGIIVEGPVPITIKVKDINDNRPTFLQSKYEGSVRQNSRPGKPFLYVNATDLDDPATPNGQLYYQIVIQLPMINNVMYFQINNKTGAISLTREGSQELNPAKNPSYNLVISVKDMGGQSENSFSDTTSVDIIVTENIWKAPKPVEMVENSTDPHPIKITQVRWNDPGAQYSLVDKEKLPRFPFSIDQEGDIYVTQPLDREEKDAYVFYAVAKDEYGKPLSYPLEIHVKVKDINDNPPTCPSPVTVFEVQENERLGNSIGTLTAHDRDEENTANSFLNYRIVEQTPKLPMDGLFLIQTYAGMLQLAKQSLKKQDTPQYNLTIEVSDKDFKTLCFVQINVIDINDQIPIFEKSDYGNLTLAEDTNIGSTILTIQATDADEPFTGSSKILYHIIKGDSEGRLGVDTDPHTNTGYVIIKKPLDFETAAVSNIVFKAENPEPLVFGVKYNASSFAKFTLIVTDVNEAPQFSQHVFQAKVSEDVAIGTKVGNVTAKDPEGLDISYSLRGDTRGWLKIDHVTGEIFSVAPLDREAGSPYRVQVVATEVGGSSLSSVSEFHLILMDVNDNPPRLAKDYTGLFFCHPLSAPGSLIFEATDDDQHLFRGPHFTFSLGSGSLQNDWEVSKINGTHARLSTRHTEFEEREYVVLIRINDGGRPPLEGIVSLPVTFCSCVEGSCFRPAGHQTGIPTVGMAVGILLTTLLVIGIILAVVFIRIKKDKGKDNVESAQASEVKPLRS
Put plainly: flow cytometry on AGS and AsPC-1 cells.

The target in assay [3] is T1, recombinant human CDH17 (R&D systems). Put plainly: ELISA, plate coated with recombinant human CDH17. Here is the method:
as §1

B1: VHO v358 (VHH)
VHH: EVQLLESGGGLVQPGGSLRLSCAASGFTFSDYWMSWVRQAPGKGLEWVSNISGDGGSTYYADSVKGRFTISRDNSKNTLYLQMNSLRAEDTAVYYCAKTTDLLQGAFDYWGQGTLVTVSS
notes: Variable-heavy-only (VHO) single domain; also called TS00358
In the case of B1, the binding result in assay [1] and in assay [2] was “binds” in each case.

B2: VHO v366 (VHH)
VHH: EVQLLESGGGLVQPGGSLRLSCAASGFTFSDYWMSWVRQAPGKGLEWVSNINGDGGSTYYADSVKGRFTISRDNSKNTLYLQMNSLRAEDTAVYYCAKTSTFYKQDKFDYWGQGTLVTVSS
notes: Variable-heavy-only (VHO) single domain; also called TS00366
With B2, the binding result in assay [1] and in assay [2] was “binds” each time.

B3: VHO v364 (VHH)
VHH: EVQLLESGGGLVQPGGSLRLSCAASGFTFSDYWMSWVRQAPGKGLEWVSNISGSGGSTYYADSVKGRFTISRDNSKNTLYLQMNSLRAEDTAVYYCAKTSDWLLHDADLHFDYWGQGTLVTVSS
notes: Variable-heavy-only (VHO) single domain; also called TS00364; CDH17-VHO364
Take B3: the binding result in assay [1] and in assay [2] was “binds” each time.

B4: VHO v363 (VHH)
VHH: EVQLLESGGGLVQPGGSLRLSCAASGFTFSTYWMSWVRQAPGKGLEWVSNISQDGGSTYYADSVKGRFTISRDNSKNTLYLQMNSLRAEDTAVYYCAKTTDWLQDKVDEAFDYWGQGTLVTVSS
notes: Variable-heavy-only (VHO) single domain; also called TS00363
Consider B4, for which the binding result in assay [1] and in assay [2] was “binds” each time.

B5: CDH17 v4 (antibody, V domains shown)
VH: EVQLQQSVAELVKPGASVKMSCKVSGYTLTDHTIHWMKQRPEQGLEWIGYIYPRDGITGYNEKFKGKATLTADTSSSTAYMQLNSLTSEDSAVYFCARWGYSYRNYAYYYDYWGQGTTLTVSS
VL: DIVMTQSQKFMSTTVGDRVNITCKASQNVGTAVAWYQQKPGQSPKLLIYSASNRYTGVPDRFTGSGSGTDFTLTITNMQSKDLADYFCQQYSSYPWTFGGGTKLEIK
notes: typical human IgG heavy and light chain bands on SDS-PAGE
Regarding B5, the binding result in assay [3] is on record as “binds”.

B6: CDH17 v5 (antibody, V domains shown)
VH: QVQLVQSGAEVKKPGSSVKVSCKVSGYTFTDHTIHWMKQRPGQGLEWIGYIYPRDVITQYNEKFKGKVTLTADKSTSTAYMELSSLRSEDTAVYLCARWGYFYGSRSYYFDYWGQGTTVTVSS
VL: DIVMTQSQKFMSTTVGDRVNITCKASQNVGTAVAWYQQKPGQSPKLLIYSASNRYTGVPDRFTGSGSGTDFTLTITNMQSKDLADYFCQQYSSYPWTFGGGTKLEIK
notes: as for B5
Regarding B6, the binding result in assay [3] is “binds”.

B7: CDH17 v6 (antibody, V domains shown)
VH: QVQLQQSDAELVKPGASVKISCKVSGYTFTDHTIHWMKQRPEQGLEWIGYIYPRDVITQYNEKFKGKATLTADKSSSTAYMQLNSLTSEDSAVYLCARWGYFYGSRSYYFDYWGQGTTLTVSS
VL: DIVMTQSQKFMSTTVGDRVNITCKASQNVGTAVAWYQQKPGQSPKLLIYSASNRYTGVPDRFTGSGSGTDFTLTITNMQSKDLADYFCQQYSSYPWTFGGGTKLEIK
notes: as for B5
B7: the binding result in assay [3] was “binds”.
